Test results reported in the supplement of paper PMC9732359.
± gives the uncertainty stated by the source.

Test: protein stability index of a GFP-peptide fusion (yeast GPS) (PSI 1-4); higher = more stable; sorted into four equal gates, so the index is relative within each strain
Method in brief: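 Sequencing reads from sorted gates were used to score each peptide. The library consisted of tiled 17-residue yeast protein peptides fused downstream of GFP on a Cherry-expressing plasmid, pooled and carried in yeast. Mid-log cultures in leucine-free medium were split into four equal gates by GFP/Cherry ratio, and each gate's plasmids were PCR-amplified and Illumina-sequenced. The protein stability index adds up, over all gates, the read frequency multiplied by the gate number.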

| Sequence | protein stability index (doa10∆) | protein stability index (pdr5∆) | protein stability index (san1∆) | protein stability index (ubr1∆) |
| --- | --- | --- | --- | --- |
| QIIRRVKEMEPKQSDEY [SIR3] | 3.29 ± 0.12 | 3.18 ± 0.11 | 3.37 ± 0.069 | 2.89 ± 0.15 |
| AVALAASDLVLIVIDVV [SNU114] | 2.08 ± 0.052 | 2.5 ± 0.06 | 2.75 ± 0.094 | 2.13 ± 0.05 |
| LNKFKKAIFQFVCRGMA [ECM29] | 2.06 ± 0.1 | 2.08 ± 0.071 | 2.6 ± 0.11 | 1.92 ± 0.052 |
| GSKIRVMWGKVTRTHGN [RPL33A] | 3.09 ± 0.075 | 2.9 ± 0.076 | 2.76 ± 0.062 | 2.78 ± 0.054 |
| PGHVNFMDETAVALAAS [SNU114] | 2.4 ± 0.062 | 2.7 ± 0.1 | 2.29 ± 0.073 | 2.34 ± 0.066 |
| MLMPKQERNKIHQYLFQ [RPS10B] | 2.76 ± 0.29 | 2.88 ± 0.17 | 2.89 ± 0.14 | 2.78 ± 0.1 |
| IKNGRIYFTVPNEFEIQ [RGR1] | 2.62 ± 0.06 | 2.49 ± 0.045 | 2.45 ± 0.049 | 2.57 ± 0.043 |
| IGIVDYEAGASHGNPVV [FAS1] | 3.01 ± 0.068 | 2.99 ± 0.064 | 3.03 ± 0.063 | 3.19 ± 0.04 |
| LKLLVKLYTFLARRTDA [RPL18A] | 2.26 ± 0.073 | 1.99 ± 0.056 | 1.75 ± 0.065 | 1.97 ± 0.059 |
| EIEMKNKLEKLNSLLTY [SMC4] | 1.71 ± 0.055 | 1.87 ± 0.058 | 1.85 ± 0.1 | 1.61 ± 0.04 |
| VPTVPPSQSEEQKGQMA [MED4] | 2.78 ± 0.12 | 2.82 ± 0.058 | 3 ± 0.067 | 2.6 ± 0.091 |
| LNIDWSTTGDNGELDLS [MED2] | 2.2 ± 0.057 | 2.48 ± 0.058 | 2.13 ± 0.079 | 2.28 ± 0.044 |
| KEKEAAESPEEADVEMS [PUP2] | 3.41 ± 0.11 | 3.51 ± 0.11 | 2.99 ± 0.076 | 3.28 ± 0.071 |
| TLNPDLFLYKELVKAHL [RPC82] | 2.71 ± 0.079 | 2.87 ± 0.074 | 2.95 ± 0.053 | 2.42 ± 0.055 |
| MFSPLVDSGSNDAMAGG [RPO21] | 3.3 ± 0.16 |  | 3.37 ± 0.26 |  |
| TGKTLLARACAAQTNAT [RPT5] | 2.72 ± 0.13 | 2.92 ± 0.089 | 2.9 ± 0.096 | 2.61 ± 0.29 |
| ANANANATANATANATA [SNF11] | 3.14 ± 0.037 | 3.37 ± 0.037 | 3.285 ± 0.031 | 3.342 ± 0.029 |
| DVDPIELVVFLPALCKK [RPL8A] | 2.78 ± 0.092 | 2.8 ± 0.089 | 2.64 ± 0.13 | 3.03 ± 0.057 |
| PESIRQKKARTILQHLS [PRP8] | 1.21 ± 0.099 | 1.53 ± 0.093 | 1.12 ± 0.21 | 1.21 ± 0.24 |
| PTSAQKSAVSHAPAYHR [IRR1] | 2.81 ± 0.14 | 2.69 ± 0.12 |  | 2.89 ± 0.062 |
| PDDEKFTDENTIVLSLN [RPC40] | 3.46 ± 0.13 | 3.6 ± 0.085 | 3 ± 0.16 | 3.47 ± 0.087 |
| DSSSNTYRSRAQQVPPY [SIN4] | 2.89 ± 0.097 | 2.88 ± 0.17 | 3.15 ± 0.062 | 1.61 ± 0.11 |
| NDENDDEFYINVDKNLN [RPN14] | 2.96 ± 0.19 | 2.72 ± 0.12 | 2.94 ± 0.11 | 3.05 ± 0.12 |
| LKQDLKKISSFKSLIDE [YGL172W/NUP49] | 2.81 ± 0.052 | 2.79 ± 0.05 | 3.08 ± 0.04 | 3.06 ± 0.034 |
| SDKESNAYGFIEWCSRC [YJL039C/NUP192] | 2.98 ± 0.066 | 2.79 ± 0.067 | 2.97 ± 0.053 | 2.73 ± 0.063 |
| IMAKRPFDKKSNSALFR [FAS1] | 2.84 ± 0.059 | 2.9 ± 0.062 | 2.87 ± 0.046 | 2.89 ± 0.05 |

| Sequence | protein stability index (doa10∆) | protein stability index (pdr5∆) | protein stability index (san1∆) | protein stability index (ubr1∆) |
| --- | --- | --- | --- | --- |
| SPLDIYSDEASAQKKRF [RPS2] | 2.74 ± 0.092 | 2.86 ± 0.082 | 3.03 ± 0.07 | 3.03 ± 0.061 |
| QFVETIVSKSIEMYVQE [RPN2] | 1.51 ± 0.13 |  | 1.05 ± 0.11 | 1.15 ± 0.2 |
| LFMKSLIENCKKRNMPL [SWI1] | 2.68 ± 0.053 | 2.72 ± 0.068 | 2.83 ± 0.045 | 2.82 ± 0.042 |
| HQNVIIGSNGSGKSNFF [SMC3] | 3.07 ± 0.086 | 2.7 ± 0.091 | 2.84 ± 0.069 | 2.85 ± 0.057 |
| APQLFPYGSFHQQQLQQ [DSN1] | 2.77 ± 0.076 | 2.84 ± 0.09 | 2.77 ± 0.087 | 3.15 ± 0.069 |
| SAIEHTTLKSVTIASEI [RPO21] | 2.54 ± 0.085 | 2.39 ± 0.077 | 2.57 ± 0.078 | 2.16 ± 0.045 |
| NLSSTPMETLLSGLSAD [YML031W/NDC1] | 2.42 ± 0.075 | 2.59 ± 0.071 | 2.53 ± 0.055 | 2.42 ± 0.038 |
| VQLSPSNPQHIIQPFLD [RGR1] | 2.73 ± 0.051 | 2.85 ± 0.062 | 2.51 ± 0.063 | 2.82 ± 0.032 |
| SNEICDLAYQYVRALEL [SRB2] | 2.92 ± 0.047 | 2.77 ± 0.037 | 2.88 ± 0.046 | 3.08 ± 0.042 |
| GTCNGDITTSIMDNFLE [RPN1] | 2.77 ± 0.054 | 2.85 ± 0.057 | 2.86 ± 0.056 | 2.82 ± 0.068 |
| EKVFTQGLNILEWLENP [FAS1] | 3.18 ± 0.12 | 2.98 ± 0.081 | 3.44 ± 0.054 | 3.17 ± 0.046 |
| DDEEYDYNDVEVNSKKK [BRR2] | 3.3 ± 0.051 | 3.18 ± 0.051 | 3.32 ± 0.053 | 3.33 ± 0.036 |
| LIEFQPSQGVHYKVPTD [MED6] | 2.6 ± 0.066 | 2.98 ± 0.061 | 2.93 ± 0.062 | 2.93 ± 0.046 |
| LALTTLSEPLIKIGIRV [YCG1] | 1.81 ± 0.061 | 2.06 ± 0.047 | 1.74 ± 0.065 | 2.01 ± 0.057 |
| LEDLKNTKEIAVDLEHH [RRP6] | 2.66 ± 0.061 | 2.54 ± 0.047 | 2.48 ± 0.056 | 2.7 ± 0.038 |
| DLMDDMSDISDLDDLGF [RPN3] | 1.82 ± 0.098 | 1.89 ± 0.081 | 1.57 ± 0.14 | 1.74 ± 0.075 |
| PAGFTHKLSNWLFGWND [YDL088C/ASM4] | 2.86 ± 0.073 | 3.07 ± 0.067 | 3.33 ± 0.053 | 2.96 ± 0.043 |
| YPVYTRLRTLCRDSDDH [DIS3] | 2.56 ± 0.2 | 2.77 ± 0.13 | 2.29 ± 0.24 | 2.95 ± 0.046 |
| FICTTFRTDMLQVADKF [SMC3] | 1.38 ± 0.086 | 2.31 ± 0.12 | 1.6 ± 0.089 | 1.67 ± 0.075 |
| ENEMIKPMNKGQHKNNT [SWP82] | 3.36 ± 0.081 | 3.19 ± 0.12 | 3.33 ± 0.09 | 3.26 ± 0.049 |
| EVNKSELYLTAELSEIW [SIR3] |  | 2.86 ± 0.29 |  | 3.24 ± 0.21 |
| MMVSYPKIDEDDTWYNL [AAR2] | 3.29 ± 0.063 | 3.34 ± 0.06 | 3.25 ± 0.048 | 3.35 ± 0.045 |
| KARNGLDYVRTPAAATS [SNF2] | 2.4 ± 0.059 | 2.44 ± 0.072 | 2.12 ± 0.08 | 2.35 ± 0.049 |
| NSDKPRDVYVFDKVEVQ [DIS3] | 2.96 ± 0.058 | 2.93 ± 0.066 | 3.1 ± 0.056 | 3 ± 0.059 |
| KHISASIDNDFSEEKAE [YAR002W/NUP60] | 3.04 ± 0.082 | 3.02 ± 0.065 | 3.23 ± 0.066 | 2.97 ± 0.059 |
